Test results: patent US20210309732A1 (ELIXIRON IMMUNOTHERAPEUTICS HONG KONG, published 2021)
Substitutions are numbered along the chain they refer to.

B1: 1D2 SDR mutant HK54G (antibody, IgG1, V domains shown)
VH: QVQLVQSGAEVKKPGASVKVSCEASGYTFTDKYLHWVRQAPGQGLEWMAWINPGSGGTFYAQNFKGRVTVTRDTSINTAYLELTSLRLDDTSTYYCARGRDYYDQGAADLWGQGTMVTVSS
VL: DIQLTQSPSSLSASVGDRVTITCRASQGINSVLAWYQQKPGKAPKLLLYAASKLESGVPSRFSGSGSGTDYTLTISSLQPEDFGTYYCQQYYSPVRTFGQGTKVEIKR
notes: also called X3 G
B2: 1D2 SDR mutant LV32R (antibody, IgG1, V domains shown)
VH: B1 VH with G54K
VL: B1 VL with V32R
notes: also called X8 R
B3: 1D2 SDR mutant LV32H (antibody, IgG1, V domains shown)
VH: B1 VH with G54K
VL: B1 VL with V32H
notes: also called X8 H
B4: 1D2 SDR mutant LV95E (antibody, IgG1, V domains shown)
VH: B1 VH with G54K
VL: B1 VL with V95E
notes: also called X10 E
B5: 1D2 SDR mutant LV95L (antibody, IgG1, V domains shown)
VH: B1 VH with G54K
VL: B1 VL with V95L
notes: also called X10 L
B6: 1D2 SDR mutant LV95R (antibody, IgG1, V domains shown)
VH: B1 VH with G54K
VL: B1 VL with V95R
notes: also called X10 R
B7: 1D2 SDR mutant LV95D (antibody, IgG1, V domains shown)
VH: B1 VH with G54K
VL: B1 VL with V95D
notes: also called X10 D
B8: 1D2 SDR mutant LV32G (antibody, IgG1, V domains shown)
VH: B1 VH with G54K
VL: B1 VL with V32G
notes: also called X8 G
B9: 1D2 SDR mutant LV95P (antibody, IgG1, V domains shown)
VH: B1 VH with G54K
VL: B1 VL with V95P
notes: also called X10 P
B10: 1D2 SDR mutant LV32P (antibody, IgG1, V domains shown)
VH: B1 VH with G54K
VL: B1 VL with V32P
notes: also called X8 P
B11: 1D2 SDR mutant HQ105N (antibody, IgG1, V domains shown)
VH: B1 VH with G54K, Q105N
VL: B1 VL
notes: also called X7 N
B12: 1D2 SDR mutant LV95C (antibody, IgG1, V domains shown)
VH: B1 VH with G54K
VL: B1 VL with V95C
notes: also called X10 C
B13: 1D2 SDR mutant LP94N (antibody, IgG1, V domains shown)
VH: B1 VH with G54K
VL: B1 VL with P94N
notes: also called X9 N
B14: 1D2 SDR mutant LV32Y (antibody, IgG1, V domains shown)
VH: B1 VH with G54K
VL: B1 VL with V32Y
notes: also called X8 Y
B15: 1D2 SDR mutant LV32L (antibody, IgG1, V domains shown)
VH: B1 VH with G54K
VL: B1 VL with V32L
notes: also called X8 L

Experiments:
recombinant human GM-CSF [1] = target: T1, recombinant human GM-CSF (human, UniProt P04141 18-144); test: cell-based or functional assay
T1 sequence (P04141 18-144 limits assumed): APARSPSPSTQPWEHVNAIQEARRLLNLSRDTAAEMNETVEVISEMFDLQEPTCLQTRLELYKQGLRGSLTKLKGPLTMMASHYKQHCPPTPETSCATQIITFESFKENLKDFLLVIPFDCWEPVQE

recombinant human GM-CSF [2] = target: T1, recombinant human GM-CSF; test: Biacore
recombinant human GM-CSF [3] = target: T1, recombinant human GM-CSF; test: ELISA on coated rhGM-CSF, UBA relative to 1D2
Method in brief: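 Antibody clones carrying SDR point mutants in VH or VL, each paired with the wild-type chain, were expressed in HEK293 cells. Culture media diluted 1:12000 were bound to plates coated with rhGM-CSF at 1 μg/mL for 1 h at room temperature. Detection used HRP anti-human antibody and Amplex Red fluorescence (Ex530/Em590), with UBA = fluorescence signal/dilution factor.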

| Binder | binding affinity % of 1D2 (recombinant human GM-CSF [3]) [%] | also measured |
| --- | --- | --- |
| B1 | 114 | IC50 (M), inhibition of GM-CSF induced TF-1 cell proliferation (FIG. 5B) (recombinant human GM-CSF [1]): 1.87e-09 M; Ka (recombinant human GM-CSF [2]): 2.89e+09 M⁻¹; Kd (recombinant human GM-CSF [2]): 0.346 nM; koff (recombinant human GM-CSF [2]): 0.000448 s⁻¹; kon (recombinant human GM-CSF [2]): 1.3e+06 M⁻¹ s⁻¹ |
| B2 | 1030 | IC50 (M), inhibition of GM-CSF induced TF-1 cell proliferation (FIG. 5B) (recombinant human GM-CSF [1]): 2.48e-09 M |
| B3 | 128 |  |
| B4 | 40 |  |
| B5 | 41 |  |
| B6 | 45 |  |
| B7 | 47 |  |
| B8 | 297 |  |
| B9 | 46 |  |
| B10 | 581 |  |
| B11 | 156 | IC50 (M), inhibition of GM-CSF induced TF-1 cell proliferation (FIG. 5B) (recombinant human GM-CSF [1]): 7.67e-09 M |
| B12 | 46 |  |
| B13 | 60 | IC50 (M), inhibition of GM-CSF induced TF-1 cell proliferation (FIG. 5B) (recombinant human GM-CSF [1]): 1.49e-09 M |
| B14 | 114 |  |
| B15 | 167 |  |
